Series [1] has as its target T1, Lin28B ZKD (Homo sapiens, UniProt Q6ZN17 110-174).
T1 sequence: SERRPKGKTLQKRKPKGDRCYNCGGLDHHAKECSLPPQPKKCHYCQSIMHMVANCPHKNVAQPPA
Briefly: fluorescence polarization; 1 nM probe, 1 nM-50 uM protein; dose-dependent increase; EMSA: 20 mM HEPES-NaOH pH 7.4, 2 mM DTT, 3 mM MgCl2, 0.05% NP-40, protease inhibitors, 0.1 ug poly[dI:dC], 30 min 37 C (Methods 300 nM probe, legends 10 nM); FP: 30 uL, room temperature, 20 min, buffer not stated. Particulars: protein: recombinant; tags: His. A general note: Polarisation of emitted light reports the rotation of a fluorescent probe.

Series [2] addresses T1, Lin28B ZKD. Kind of series: competition; fluorescence polarization; 1 nM-50 uM unlabeled oligo vs 1 nM FAM probe, 10 uM protein; dose-dependent reduction; EMSA: 20 mM HEPES-NaOH pH 7.4, 2 mM DTT, 3 mM MgCl2, 0.05% NP-40, protease inhibitors, 0.1 ug poly[dI:dC], 30 min 37 C (Methods 300 nM probe, legends 10 nM); FP: 30 uL, room temperature, 20 min, buffer not stated. The conditions noted are these: protein: recombinant; tags: His.

UUAGGGCACGAGAUUUUGCCCACAAGGAGUU (structured_RNA) [FAM-Let-7 probe]: the binding result with Lin28B ZKD [1] is reported as “binds”. In the case of UUAGGGCACGAGAUUUUGCCCACAAGGAGUU (structured_RNA) [non-labeled Let-7 oligo (FP competitor)], in the series with Lin28B ZKD [2], the binding result is “binds”.

These data come from paper PMC9688808, “Discovery of Novel Lin28 Inhibitors to Suppress Cancer Cell Stemness” (Cancers, 2022).
